The source of these data is US20230085357A1, “INJECTABLE HIGH CONCENTRATION PHARMACEUTICAL FORMULATIONS AND METHODS OF MANUFACTURING AND USE THEREOF” (Xeris Pharmaceuticals, Inc., priority 2021, published 2023).

The conditions of series [1]: IV product; cited from earlier work.
A short description of series [2]: Bevacizumab pharmacokinetics, plasma concentration after single 100 mg dose IV or SC. The note with it: female Gottingen minipigs, mean. It counts as in vivo.
The mark [3] stands for this setting: single dose, plasma, uncorrected.

Consider “bevacizumab: human monoclonal antibody that binds Vascular Endothelial Growth Factor (VEGF), commercialized under the AVASTIN® brand”, for which, in series [1], the average clearance rate result was “about 0.262 L/day” and the half-life result is listed as “about 20 days”.

By Cmax is commonly meant the highest concentration seen after dosing. Take Avastin ®: in series [2] (dose-corrected), the AUC336/D worked out at 3084 kg·µg·h/mL/mg, the AUClast/D turned out to be 5215 kg·µg·h/mL/mg, the “AUC∞/D” value turned out to be 5357 kg·µg·h/mL/mg and the Cmax/D was 24.7 kg·µg/mL/mg. In series [2] (single dose, plasma), the T1/2 worked out at 227 h. Also, in series [2] (setting [3]), the AUC336 amounted to 28380 µg·h/mL, the AUClast is 47990 µg·h/mL, the “AUC∞” value is 49271 µg·h/mL and the Cmax amounted to 230 µg/mL.
